The source of these data is patent US20190077860A1 (EISAI R AND D MANAGEMENT, published 2019).

In test [1] the target is mouse EphA4 extracellular region-SEAP-His protein (mouse). The test can be described thus: competition ELISA, competitor biotinylated mouse Ephrin B2-Fc; first value printed. How it is done:
Antibody A-Fab and antibody A-F(ab′)₂ obtained in Example 5 were evaluated for their inhibitory activity against the binding between EphA4 and its ligand according to the following steps. Each well of a 96-well plate (Nunc) was coated with an anti-alkaline phosphatase antibody (Thermo Fisher Scientific). After incubation overnight at 4° C., each well was blocked with 1% BlockAce (DS Pharma Biomedical) at room temperature for 1 hour. After washing with 0.05% Tween 20/PBS (Thermo Fisher Scientific) three times, the mouse EphA4 extracellular region-SEAP-His protein obtained by the method of Example 1 was added (final concentration: 10 nM) to each well and incubated at room temperature for 1 hour. After washing three times, a ligand and serially diluted antibody A (0, 0.003, 0.01, 0.03, 0.1, 0.3, 1, 3, 10, 30, 100, 300, 1000, and 3000 nM), antibody A-Fab (0, 0.003, 0.01, 0.03, 0.1, 0.3, 1, 3, 10, 30, 100, 300, 1000, and 3000 nM), antibody A-F(ab′)₂ (0, 0.003, 0.01, 0.03, 0.1, 0.3, 1, 3, 10, 30, 100, 300, 1000, and 3000 nM), or the EphA4 inhibitor KYL peptide ([…], 0, 0.0003, 0.001, 0.003, 0.01, 0.03, 0.1, 0.3, 1, 3, 10, 30, 100, 300, 1000, and 3000 μM, its synthesis was outsourced to Toray Research Center) were added to each well. […] The absorbance at 450 nm was read using a microplate reader (Molecular Devices or PerkinElmer). […]

For test [2], the target named is T1, human EphA4 extracellular region-Fc-His protein (human, UniProt P54764 20-547).
T1 construct: used as culture supernatant
T1 sequence (P54764 20-547): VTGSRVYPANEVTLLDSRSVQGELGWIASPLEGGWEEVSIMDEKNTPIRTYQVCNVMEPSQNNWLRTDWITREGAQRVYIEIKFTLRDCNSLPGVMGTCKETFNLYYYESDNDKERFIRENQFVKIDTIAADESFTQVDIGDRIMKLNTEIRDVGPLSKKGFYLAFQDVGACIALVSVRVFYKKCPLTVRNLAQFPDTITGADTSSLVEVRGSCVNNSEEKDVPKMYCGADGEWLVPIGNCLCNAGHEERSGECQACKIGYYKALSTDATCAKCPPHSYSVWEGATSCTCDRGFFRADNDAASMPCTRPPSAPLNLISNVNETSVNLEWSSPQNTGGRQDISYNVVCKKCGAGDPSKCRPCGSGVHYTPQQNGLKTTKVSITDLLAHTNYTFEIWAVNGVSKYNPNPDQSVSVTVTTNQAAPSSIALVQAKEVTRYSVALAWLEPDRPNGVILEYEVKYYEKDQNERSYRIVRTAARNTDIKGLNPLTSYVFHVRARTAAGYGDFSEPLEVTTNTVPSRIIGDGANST
In words: ELISA, EphA4 extracellular region-Fc-His (1 nM) captured on the plate, antibody A titrated, HRP anti-mouse IgG detection, OD 450 nm. How it is done:
(§1) Each well of a 96-well plate (Nunc) was coated with a […] (Jackson ImmunoResearch Laboratories). After incubation overnight at 4° C., each well was blocked with 1% BlockAce (Sumitomo Dainippon Pharma) at room temperature for 1 hour. After washing with 0.05% Tween 20/PBS (Nacalai Tesque) three times, the mouse, rat, monkey, or human EphA4 extracellular region-Fc-His protein was disseminated (final concentration: 1 nM) to each well and incubated at room temperature for 1 hour. After washing three times, a human IgG solution (100 μg/mL, Mitsubishi Pharma) and antibody A (0, 0.00128, 0.0064, 0.032, 0.16, 0.8, 4, and 20 μg/mL) were added to each well and incubated at room temperature for 1 hour. A horseradish peroxidase-labeled donkey anti-mouse IgG antibody (Jackson ImmunoResearch Laboratories) was added thereto and incubated at room temperature for 1 hour. After washing three times, a TMBZ (3,3′,5,5′-tetramethylbenzidine, Sigma-Aldrich) solution was added to each well. After confirmation of moderate color development, an equal amount of a reaction stopping solution (1N H₂SO₄, Wako Pure Chemical Industries) was added to each well. The absorbance at 450 nm was read using a microplate reader (PerkinElmer).
On the technique in general: In an ELISA, binding on a coated surface is turned into a signal by an enzyme label.

Test [3] addresses T2, mouse EphA4 extracellular region-Fc-His protein (mouse; human, UniProt Q03137 20-547).
T2 construct: used as culture supernatant
The test is described as above. How it is done: as §1

Test [4] has as its target T3, rat EphA4 extracellular region-Fc-His protein (rat; human, UniProt D3ZZK3 20-547).
T3 construct: range 20-547; used as culture supernatant
The test is described as above. The procedure: as §1

In test [5] the target is T4, monkey EphA4 extracellular region-Fc-His protein (monkey; human).
T4 construct: used as culture supernatant
T4 sequence (chain, as listed by the source): as the sequence (P54764 20-547) above, with N406S counted along it
Described as above. The procedure:
as §1

T2 sequence (Q03137 20-547): as the sequence (P54764 20-547) above, with P59A, N121S, V124G, R250Q, S251N, T270S, K378R, N406S counted along it
Chain of mouse EphA4 extracellular region-SEAP-His protein (mouse) (chain, as listed by the source limits assumed): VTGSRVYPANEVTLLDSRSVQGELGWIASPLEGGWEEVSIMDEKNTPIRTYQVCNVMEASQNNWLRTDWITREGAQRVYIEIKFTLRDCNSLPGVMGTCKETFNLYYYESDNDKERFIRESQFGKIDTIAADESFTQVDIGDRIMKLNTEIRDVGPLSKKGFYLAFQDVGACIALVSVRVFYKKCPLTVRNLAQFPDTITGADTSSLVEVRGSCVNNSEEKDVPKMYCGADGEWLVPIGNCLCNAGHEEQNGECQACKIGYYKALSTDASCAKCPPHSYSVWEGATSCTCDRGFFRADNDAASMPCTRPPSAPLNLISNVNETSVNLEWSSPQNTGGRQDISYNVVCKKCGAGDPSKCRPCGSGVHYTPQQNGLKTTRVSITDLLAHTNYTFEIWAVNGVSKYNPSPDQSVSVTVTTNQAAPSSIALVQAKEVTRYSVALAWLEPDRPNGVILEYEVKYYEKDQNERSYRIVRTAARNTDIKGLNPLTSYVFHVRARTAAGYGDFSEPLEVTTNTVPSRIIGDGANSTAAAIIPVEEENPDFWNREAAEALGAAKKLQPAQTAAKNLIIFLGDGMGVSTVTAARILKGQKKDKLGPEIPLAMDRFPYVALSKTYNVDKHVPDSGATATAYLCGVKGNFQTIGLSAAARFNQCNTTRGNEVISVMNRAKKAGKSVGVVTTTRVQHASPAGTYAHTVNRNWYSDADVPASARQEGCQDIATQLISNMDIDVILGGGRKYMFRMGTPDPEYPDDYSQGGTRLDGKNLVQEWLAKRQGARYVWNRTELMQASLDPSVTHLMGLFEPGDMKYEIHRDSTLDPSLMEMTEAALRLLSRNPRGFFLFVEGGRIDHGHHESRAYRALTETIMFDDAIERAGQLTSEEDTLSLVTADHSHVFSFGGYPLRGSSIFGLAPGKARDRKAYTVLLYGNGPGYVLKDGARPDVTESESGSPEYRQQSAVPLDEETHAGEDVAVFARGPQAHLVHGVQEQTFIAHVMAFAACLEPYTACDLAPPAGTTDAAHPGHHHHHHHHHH

B1: antibody A (antibody, mouse IgG1, kappa, V domains shown)
VH: QIQLVQSGPELKKPGETVKISCKASGYTFTDYSMHWVKQAPGKGLKWMGWINTETGEPTYADDFKGRFAFSLETSASTAYLQINNLKNEDTATYFCARIPLYYYGSRYWYFDVWGAGTTVTVSS
VL: DIQMTQSPASLSVSVGETVTITCRASENIYRNLAWYQQKQGKSPQLLVYAATNLADGVPSRFSGSGSGTQYSLKINSLQSEDFGSYYCQHFWGTPWTFGGGTKLEIKR
notes: mouse IgG1 heavy chain, kappa light chain; purified from hybridoma supernatant; also called anti-EphA4 monoclonal antibody; antibody A-IgG
Broadly, the IC50 is the concentration at which inhibition is half-maximal. For orientation: EC50 (read off the curve) means the concentration at which the effect is half-maximal. In the case of B1, the IC50 in test [1] came to 2.6 nM. Moreover, the concentration for a half-maximal effect (EC50 (read off the curve)) in test [2], in test [3], in test [4] and in test [5] was ~0.1 nM each time.
